The values that follow come from patent CN114106182A (ZHONGSHAN KANGFARE BIOLOGICAL MEDICINE CO LTD, dated 2022).

Experiment [1] addresses T1, human TIGIT-mFc (human; mouse, UniProt Q495A1 22-141, limits assumed).
T1 construct: Made in house (Akeso, lot 20171110); also called 人TIGIT-mFc; not shown: Fc fragment of mouse IgG (mFc)
T1 sequence (looked up): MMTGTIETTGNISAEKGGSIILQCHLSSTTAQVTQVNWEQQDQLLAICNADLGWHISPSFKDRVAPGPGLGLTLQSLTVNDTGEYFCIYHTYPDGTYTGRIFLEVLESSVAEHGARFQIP
As to the kind of experiment: indirect ELISA screening of hybridomas on human TIGIT-mFc. In general terms: In an ELISA, binding on a coated surface is turned into a signal by an enzyme label.

The target in experiment [2] is T1, human TIGIT-mFc. As to the kind of experiment: competition ELISA on coated TIGIT-mFc; competitor CD155-hFc-Biotin (Table 3 experiment).
Experiment [3] has as its target T1, human TIGIT-mFc. As to the kind of experiment: indirect ELISA, TIGIT-mFc captured by goat anti-mouse IgG Fc (Table 1 experiment).
In experiment [4] the target is T1, human TIGIT-mFc. In words: BLI (Fortebio), antibody on AHC sensor, TIGIT-mFc 0.62-50 nM, 1:1 fit, 37 degrees. On the technique in general: Biolayer interferometry detects binding as a change in optical thickness at a sensor tip.
The target in experiment [5] is T1, human TIGIT-mFc. As to the kind of experiment: indirect ELISA, TIGIT-mFc captured by goat anti-mouse IgG Fc (Table 2 experiment).
Experiment [6] deals with T2, TIGIT antigen on the surface of 293T-TIGIT cells (human, UniProt Q495A1 22-244).
T2 construct: whole, on cells; also called Jurkat-TIGIT (TIGITFL)
T2 sequence (looked up): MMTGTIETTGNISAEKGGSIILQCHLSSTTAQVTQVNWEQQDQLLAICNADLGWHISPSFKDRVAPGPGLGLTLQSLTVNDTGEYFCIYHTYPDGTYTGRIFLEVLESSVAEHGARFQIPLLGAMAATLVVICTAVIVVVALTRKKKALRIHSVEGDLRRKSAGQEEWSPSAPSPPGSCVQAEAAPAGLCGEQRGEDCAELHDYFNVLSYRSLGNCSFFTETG
As to the kind of experiment: FACS competition on 293T-TIGIT cells; competitor CD155-mG1Fc (10 nM).

Experiment [7] addresses T2, TIGIT antigen on the surface of …. In words: FACS competition on 293T-TIGIT cells; competitor CD112-mG1Fc (30 nM).
Experiment [8] deals with T1, human TIGIT-mFc. In words: competition ELISA on coated TIGIT-mFc; competitor CD155-hFc-Biotin (Table 4 experiment).
Experiment [9] has as its target T2, TIGIT antigen on the surface of …. In words: flow cytometry on 293T-TIGIT cells, FITC goat anti-human IgG. For orientation: A flow cytometer gives signals particle by particle.

B1: 26B12 (antibody, V domains shown)
VH: EVQLQESGPGLVKPSQSLSLTCTVTGHSFTSDYAWNWIRQFPGNRLEWMGYISYSDSTNYNPSLKSRISITRDTSKNQFFLQMNSVTTEDTATYYCARLDYGNYGGAMDYWGQGTSVTVSS
VL: DIVLTQSHEFMSTSLRDRVSITCKSSQHVSTAVAWYQQKPGQSPKLLIYSASYRYTGVPDRFTGSGSGTDFTFTISSVKAEDLAVYYCQQHYITPWTFGGGTKLEIK
notes: Mouse monoclonal antibody from hybridoma; also called monoclonal antibody secreted by hybridoma LT019 (CCTCC NO: C2020208)
B1: the binding result in the experiment with human TIGIT-mFc [1] was “binds”.

B2: BMS 22G2 (antibody, human IgG1, kappa, V domains shown)
VH: QVQLQESGPGLVKPSETLSLTCTVSGGSVSSGIYYWSWIRQPPGKGLEWIGYIYYSGSTNYNPSLKSRVTISVDTSKNQFSLKLSSVTAADTAVYYCARDYYVSGNYYNVDYYFFGVDVWGQGTTVTVSS
VL: EIVLTQSPATLSLSPGERATLSCRASQSVSSYLAWYQQKPGQAPRLLIYDASNRATGIPARFSGSGSGTDFTLTISSLEPEDFAVYYCQQRSNWPPLFTFGPGTKVDIKR
notes: Positive control anti-TIGIT antibody
As for B2, the 50% effective concentration (EC50) with human TIGIT-mFc [2] was determined as 0.513 nM; with human TIGIT-mFc [3], 0.017 nM.

B3: BMS 22G2(G1DM) (antibody, V domains shown)
VH: B2 VH
VL: EIVLTQSPATLSLSPGERATLSCRASQSVSSYLAWYQQKPGQAPRLLIYDASNRATGIPARFSGSGSGTDFTLTISSLEPEDFAVYYCQQRSNWPPLFTFGPGTKVDIK
For B3, the dissociation constant (Kd) in the experiment with human TIGIT-mFc [4] is 0.628 nM.

B4: RG6058(G1DM) (antibody, human IgG1, kappa, L234A L235A, V domains shown)
VH: EVQLQQSGPGLVKPSQTLSLTCAISGDSVSSNSAAWNWIRQSPSRGLEWLGKTYYRFKWYSDYAVSVKGRITINPDTSKNQFSLQLNSVTPEDTAVFYCTRESTTYDLLAGPFDYWGQGTLVTVSS
VL: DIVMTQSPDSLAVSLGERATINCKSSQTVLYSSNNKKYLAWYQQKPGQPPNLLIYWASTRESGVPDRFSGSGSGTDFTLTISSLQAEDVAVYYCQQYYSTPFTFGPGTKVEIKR
notes: Positive control anti-TIGIT antibody (Tiragolumab variable regions, G1DM constant region)
For the molecule B4, the concentration for a half-maximal effect (EC50) came out at 0.017 nM with human TIGIT-mFc [5]; 1.22 nM in [6]; 1.29 nM in experiment [7]; 0.425 nM in the experiment with human TIGIT-mFc [8]; 1.15 nM in [9]. Besides, the affinity with human TIGIT-mFc [4], expressed as Kd, was 0.847 nM.

For orientation: EC50 means the concentration that produces a half-maximal response. Read a high EC50 as a less potent agent. The Kd is the concentration at which binding is half-saturated. Low values mean higher affinity, high ones lower affinity.
